{
  "source": "paper PMC3227541",
  "key": {"[1]": {"molecular_target": "fluorescein-labelled single cysteine mutant of arrestin-2 (arrestin-2-S234C on cysteine-less background) (bovine) (UniProt P17870)", "sequence (P17870 whole entry S234C, stated change not applied)": "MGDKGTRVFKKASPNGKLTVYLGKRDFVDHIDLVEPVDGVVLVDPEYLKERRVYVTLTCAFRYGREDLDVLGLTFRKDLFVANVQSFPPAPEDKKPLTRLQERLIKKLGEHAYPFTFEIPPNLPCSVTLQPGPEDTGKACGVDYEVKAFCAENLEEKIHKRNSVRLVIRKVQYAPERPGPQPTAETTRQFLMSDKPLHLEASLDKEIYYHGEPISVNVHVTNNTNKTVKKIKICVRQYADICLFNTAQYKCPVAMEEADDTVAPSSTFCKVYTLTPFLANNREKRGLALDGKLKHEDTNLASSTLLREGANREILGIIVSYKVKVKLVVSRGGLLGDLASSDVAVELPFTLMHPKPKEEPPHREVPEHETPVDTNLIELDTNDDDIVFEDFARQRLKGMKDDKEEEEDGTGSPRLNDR", "assay": "FRET or BRET"}, "[2]": {"molecular_target": "fluorescein-labelled single cysteine mutant of arrestin-3 (arrestin-3-L101C on cysteine-less background) (bovine) (UniProt P32120)", "sequence (P32120 whole entry L101C, stated change not applied)": "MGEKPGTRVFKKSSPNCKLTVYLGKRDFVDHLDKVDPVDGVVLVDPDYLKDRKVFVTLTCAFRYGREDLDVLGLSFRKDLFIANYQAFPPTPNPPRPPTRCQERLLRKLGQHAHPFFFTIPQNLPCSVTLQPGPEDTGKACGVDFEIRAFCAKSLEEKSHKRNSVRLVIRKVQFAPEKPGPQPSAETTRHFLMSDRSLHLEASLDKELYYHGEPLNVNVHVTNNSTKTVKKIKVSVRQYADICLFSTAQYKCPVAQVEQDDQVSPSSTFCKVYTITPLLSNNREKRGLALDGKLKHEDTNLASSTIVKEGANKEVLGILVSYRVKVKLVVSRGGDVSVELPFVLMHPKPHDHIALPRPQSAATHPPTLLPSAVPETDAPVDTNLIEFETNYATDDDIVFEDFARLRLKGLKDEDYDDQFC", "assay": "FRET or BRET"}},
  "note": "pKd: −log10 of the molar value.",
  "data": [
    {"substance": "Alexa-568-labeled JNK3α2-His (from UniProt P53779 1-464) (enzyme)", "values": [
      {"measurement": "pKd", "setting": "[1]", "value": 5.21},
      {"measurement": "pKd", "setting": "[2]", "value": 5.36}
    ]}
  ]
}
